Experiments:
[1] = target: human CD3 (TCR/CD3 complex) on human T cells (human) (UniProt P07766); test: flow cytometry (FACS) on human T cells, Experiment 2, isotype control
[2] = target: human CD3 (TCR/CD3 complex) on human T cells (human) (UniProt P07766); test: flow cytometry (FACS) on human T cells, Experiment 3, isotype control
[3] = target: cynomolgus monkey CD3 (TCR/CD3 complex) on cynomolgus monkey T cells (cynomolgus monkey); test: flow cytometry (FACS) on cynomolgus monkey T cells, isotype control
Sequence of cynomolgus monkey CD3 (TCR/CD3 complex) on cynomolgus monkey T cells (cynomolgus monkey) (Q95LI5 22-198, one chain of several): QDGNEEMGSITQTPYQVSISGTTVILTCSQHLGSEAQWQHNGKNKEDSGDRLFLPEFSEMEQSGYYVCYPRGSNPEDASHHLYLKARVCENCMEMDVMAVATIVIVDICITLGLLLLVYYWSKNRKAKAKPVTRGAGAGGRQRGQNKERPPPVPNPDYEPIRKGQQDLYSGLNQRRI

Sequence of human CD3 (TCR/CD3 complex) on human T cells (human) (P07766 23-207, one chain of several): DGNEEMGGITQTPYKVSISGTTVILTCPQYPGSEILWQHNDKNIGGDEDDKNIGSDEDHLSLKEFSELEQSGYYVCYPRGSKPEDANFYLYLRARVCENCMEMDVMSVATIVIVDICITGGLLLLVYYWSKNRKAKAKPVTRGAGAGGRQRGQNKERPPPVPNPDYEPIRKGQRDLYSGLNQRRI

Maximum MFI [1]: 12 MFI
Maximum MFI [2]: 3000 MFI
Maximum MFI [3]: 794 MFI
Substance: hIgG1 iso (CrownBio, #C0001) (antibody)

— patent US20230322953A1
